This series has as its target T1, His6-Lrp (Klebsiella oxytoca MIT 09-7231) (UniProt A0A181XPK7).
T1 sequence: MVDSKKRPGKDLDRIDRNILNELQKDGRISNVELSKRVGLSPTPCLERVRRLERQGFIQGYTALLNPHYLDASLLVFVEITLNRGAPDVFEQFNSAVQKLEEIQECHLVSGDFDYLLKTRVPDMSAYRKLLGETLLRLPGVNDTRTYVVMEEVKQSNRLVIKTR
The series is described as follows: EMSA. The conditions noted are these: 40 mM HEPES ([…], room temperature 20 min. Background: Mobility shift assays separate free from complexed probe on a gel.

This is an account of results in PMC11774035.

Consider “TCTCTCACTCGAAATTTAACAGGTTTTTCGTTTGTTTTTTAACAAAAAAGCGATGAGAAAGTGCTATTCCTTGTCTGTTTACTGGACATGAAAGACGATACGGTTTGCACAAATATTGCACGCCAATGAGTGCATTATGTCAATCAAAA (double strand) [aroX-npsA fragment 1]”, for which the binding result is on record as “no binding”. As for “TCTCTCCTGGAGAATTAGGAACGTTCACACGCATAAAATCTTCTCTTGAAGAAGAAATTAAAGATCTAAAGAAATGCCGCCAGCTTACCGTGAGATGCTTCTAAGAAAACACCGCAAAACAAGCAACATATAAGCAACACAAACATAACT (double strand) [aroX-npsA fragment 3]”, the binding result is on record as “no binding”.
